Measurements: patent publication US10562947B2, “Compositions and methods for preventing or treating diseases, conditions or processes characterized by aberrant fibroblast proliferation and extracellular matrix deposition” (MOERAE MATRIX, INC., priority 2011, dated 2020)

Key:
Assay in all cases: Kinase Profiling Assay
Type in all cases: biochemical
Conditions in all cases: 100 μM peptide
TAK1(h) = biological target: T1, TAK1(h) (Homo sapiens, UniProt O43318)
T1 sequence (O43318 1-303 limits assumed): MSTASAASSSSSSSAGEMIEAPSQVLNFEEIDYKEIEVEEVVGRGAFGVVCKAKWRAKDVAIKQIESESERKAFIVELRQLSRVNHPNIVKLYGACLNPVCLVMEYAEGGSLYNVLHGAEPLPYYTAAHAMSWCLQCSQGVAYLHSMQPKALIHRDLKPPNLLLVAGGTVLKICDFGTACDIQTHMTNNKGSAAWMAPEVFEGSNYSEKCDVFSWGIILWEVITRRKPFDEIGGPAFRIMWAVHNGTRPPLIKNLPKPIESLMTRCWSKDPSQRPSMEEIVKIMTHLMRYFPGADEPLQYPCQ
Procedure, shortened: (§1)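 Peptides designed to inhibit MK2 were checked against a broad human kinase panel (266 enzymes), with duplicate measurement of every activity.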

CHK2(I157T)(h) = CHK2(I157T)(h) (Homo sapiens, UniProt O96017, I157T)
Procedure, shortened: as §1

PRAK(h) = biological target: T2, PRAK(h) (Homo sapiens, UniProt Q8IW41)
T2 construct: purchased Millipore (IC50 Profiler Express service)
T2 sequence (Q8IW41 1-473): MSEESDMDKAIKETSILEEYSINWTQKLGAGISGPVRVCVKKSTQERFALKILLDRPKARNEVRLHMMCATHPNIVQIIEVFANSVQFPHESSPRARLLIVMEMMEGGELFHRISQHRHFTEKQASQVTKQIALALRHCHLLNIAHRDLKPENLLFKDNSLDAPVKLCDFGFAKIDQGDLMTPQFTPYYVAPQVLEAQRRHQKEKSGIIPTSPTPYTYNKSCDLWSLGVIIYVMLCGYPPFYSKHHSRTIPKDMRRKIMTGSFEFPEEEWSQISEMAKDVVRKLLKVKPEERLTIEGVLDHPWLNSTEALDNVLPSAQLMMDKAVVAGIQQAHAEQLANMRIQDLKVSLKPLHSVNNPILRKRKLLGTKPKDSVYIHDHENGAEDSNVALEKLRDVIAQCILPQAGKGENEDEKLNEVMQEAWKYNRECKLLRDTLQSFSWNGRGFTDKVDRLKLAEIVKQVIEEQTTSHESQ
Procedure, shortened: as §1

Rsk3(h) = Rsk3(h) (Homo sapiens, UniProt Q15349)
Procedure, shortened: as §1

p70S6K(h) = p70S6K(h) (Homo sapiens, UniProt P23443)
Procedure, shortened: as §1

CDK9/cyclin T1(h) = CDK9/cyclin T1(h) (Homo sapiens, UniProt P50750)
Procedure, shortened: as §1

IRAK4(h) = biological target: T3, IRAK4(h) (Homo sapiens, UniProt Q9NWZ3)
T3 construct: purchased Millipore
T3 sequence (Q9NWZ3 1-460): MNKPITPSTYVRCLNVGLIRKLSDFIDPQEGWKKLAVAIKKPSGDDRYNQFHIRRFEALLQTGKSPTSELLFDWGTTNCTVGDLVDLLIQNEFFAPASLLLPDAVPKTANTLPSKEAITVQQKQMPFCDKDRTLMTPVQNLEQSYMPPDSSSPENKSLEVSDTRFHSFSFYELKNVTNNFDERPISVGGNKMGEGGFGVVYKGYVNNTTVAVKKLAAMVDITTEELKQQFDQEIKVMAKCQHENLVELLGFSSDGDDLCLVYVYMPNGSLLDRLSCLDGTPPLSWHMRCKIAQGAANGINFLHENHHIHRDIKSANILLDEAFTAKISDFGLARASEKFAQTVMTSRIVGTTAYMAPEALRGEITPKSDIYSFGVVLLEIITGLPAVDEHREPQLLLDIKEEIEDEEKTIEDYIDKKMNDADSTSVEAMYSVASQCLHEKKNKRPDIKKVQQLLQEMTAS
Procedure, shortened: as §1

Bmx(h) = biological target: T4, Bmx(h) (Homo sapiens, UniProt P51813)
T4 sequence (P51813 1-675): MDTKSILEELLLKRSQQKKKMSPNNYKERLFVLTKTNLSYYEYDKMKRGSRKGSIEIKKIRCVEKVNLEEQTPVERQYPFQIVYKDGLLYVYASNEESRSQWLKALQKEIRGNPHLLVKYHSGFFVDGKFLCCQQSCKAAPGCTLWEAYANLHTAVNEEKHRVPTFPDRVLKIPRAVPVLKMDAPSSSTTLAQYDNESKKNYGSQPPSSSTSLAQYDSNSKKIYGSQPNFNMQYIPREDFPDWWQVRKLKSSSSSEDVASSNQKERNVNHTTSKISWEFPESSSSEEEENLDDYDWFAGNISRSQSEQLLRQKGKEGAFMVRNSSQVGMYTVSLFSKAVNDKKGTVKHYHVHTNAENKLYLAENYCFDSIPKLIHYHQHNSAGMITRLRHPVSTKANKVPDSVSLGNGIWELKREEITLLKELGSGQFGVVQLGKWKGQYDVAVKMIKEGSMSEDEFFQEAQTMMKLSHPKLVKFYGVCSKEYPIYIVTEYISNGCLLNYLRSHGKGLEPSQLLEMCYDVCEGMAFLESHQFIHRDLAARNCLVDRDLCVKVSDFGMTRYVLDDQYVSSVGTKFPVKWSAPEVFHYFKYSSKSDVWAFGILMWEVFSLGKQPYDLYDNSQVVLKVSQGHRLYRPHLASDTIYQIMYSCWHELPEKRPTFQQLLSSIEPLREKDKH
Procedure, shortened: as §1

Met(Y1248H)(h) = Met(Y1248H)(h) (Homo sapiens, UniProt P08581, Y1230H)
Procedure, shortened: as §1

BTK(h) = BTK(h) (Homo sapiens, UniProt Q06187)
Procedure, shortened: as §1

Sequence of Rsk3(h) (Q15349 whole entry): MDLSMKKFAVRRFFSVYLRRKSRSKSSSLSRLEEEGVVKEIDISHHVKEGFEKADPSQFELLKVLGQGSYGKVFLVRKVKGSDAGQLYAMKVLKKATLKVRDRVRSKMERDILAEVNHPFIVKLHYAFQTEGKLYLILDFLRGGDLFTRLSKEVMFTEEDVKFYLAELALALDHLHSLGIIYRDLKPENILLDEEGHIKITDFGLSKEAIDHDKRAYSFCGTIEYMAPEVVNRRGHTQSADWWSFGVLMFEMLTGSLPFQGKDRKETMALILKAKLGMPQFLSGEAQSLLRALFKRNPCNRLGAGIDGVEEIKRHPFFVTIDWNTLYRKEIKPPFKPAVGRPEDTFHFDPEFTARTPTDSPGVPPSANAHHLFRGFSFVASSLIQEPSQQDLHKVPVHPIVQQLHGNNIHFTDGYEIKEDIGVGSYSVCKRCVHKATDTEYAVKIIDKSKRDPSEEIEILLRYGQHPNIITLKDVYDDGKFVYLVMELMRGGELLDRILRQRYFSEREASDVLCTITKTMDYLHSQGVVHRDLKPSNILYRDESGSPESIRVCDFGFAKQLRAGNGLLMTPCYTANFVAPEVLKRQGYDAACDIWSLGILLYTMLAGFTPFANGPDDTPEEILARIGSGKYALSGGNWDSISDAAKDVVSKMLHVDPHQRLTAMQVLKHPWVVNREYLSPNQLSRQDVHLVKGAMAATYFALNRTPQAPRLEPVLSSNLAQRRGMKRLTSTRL
Sequence of CDK9/cyclin T1(h) (P50750 whole entry): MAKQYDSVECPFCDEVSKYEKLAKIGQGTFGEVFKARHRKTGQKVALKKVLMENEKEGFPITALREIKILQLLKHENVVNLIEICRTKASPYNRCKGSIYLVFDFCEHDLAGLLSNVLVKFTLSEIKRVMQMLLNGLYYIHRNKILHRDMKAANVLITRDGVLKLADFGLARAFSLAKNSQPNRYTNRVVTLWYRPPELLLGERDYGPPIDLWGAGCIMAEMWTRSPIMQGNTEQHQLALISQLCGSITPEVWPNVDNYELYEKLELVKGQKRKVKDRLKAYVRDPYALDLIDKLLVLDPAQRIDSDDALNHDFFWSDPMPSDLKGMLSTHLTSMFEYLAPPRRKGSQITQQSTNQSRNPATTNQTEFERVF
Sequence of CDK9/cyclin T1(h) (O60563 whole entry partner): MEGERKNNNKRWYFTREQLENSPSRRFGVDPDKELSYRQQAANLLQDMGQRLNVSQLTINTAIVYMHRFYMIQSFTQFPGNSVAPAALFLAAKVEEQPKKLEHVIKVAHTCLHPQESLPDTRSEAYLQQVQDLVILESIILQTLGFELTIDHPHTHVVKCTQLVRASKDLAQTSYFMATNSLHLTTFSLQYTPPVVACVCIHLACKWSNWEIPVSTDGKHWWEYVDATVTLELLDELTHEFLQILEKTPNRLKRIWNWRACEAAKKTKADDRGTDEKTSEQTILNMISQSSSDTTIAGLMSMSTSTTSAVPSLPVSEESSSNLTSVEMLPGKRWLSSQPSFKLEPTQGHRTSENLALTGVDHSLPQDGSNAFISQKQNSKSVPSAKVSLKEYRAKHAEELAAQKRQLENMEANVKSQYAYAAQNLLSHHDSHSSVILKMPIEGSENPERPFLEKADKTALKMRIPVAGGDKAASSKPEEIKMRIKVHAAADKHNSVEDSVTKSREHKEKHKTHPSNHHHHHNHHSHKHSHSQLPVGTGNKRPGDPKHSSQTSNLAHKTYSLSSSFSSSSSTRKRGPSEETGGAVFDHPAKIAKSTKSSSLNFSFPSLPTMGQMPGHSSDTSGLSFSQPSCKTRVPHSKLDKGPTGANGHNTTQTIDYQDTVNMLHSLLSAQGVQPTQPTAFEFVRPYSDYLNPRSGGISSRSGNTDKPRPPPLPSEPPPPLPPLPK
Sequence of p70S6K(h) (P23443 whole entry): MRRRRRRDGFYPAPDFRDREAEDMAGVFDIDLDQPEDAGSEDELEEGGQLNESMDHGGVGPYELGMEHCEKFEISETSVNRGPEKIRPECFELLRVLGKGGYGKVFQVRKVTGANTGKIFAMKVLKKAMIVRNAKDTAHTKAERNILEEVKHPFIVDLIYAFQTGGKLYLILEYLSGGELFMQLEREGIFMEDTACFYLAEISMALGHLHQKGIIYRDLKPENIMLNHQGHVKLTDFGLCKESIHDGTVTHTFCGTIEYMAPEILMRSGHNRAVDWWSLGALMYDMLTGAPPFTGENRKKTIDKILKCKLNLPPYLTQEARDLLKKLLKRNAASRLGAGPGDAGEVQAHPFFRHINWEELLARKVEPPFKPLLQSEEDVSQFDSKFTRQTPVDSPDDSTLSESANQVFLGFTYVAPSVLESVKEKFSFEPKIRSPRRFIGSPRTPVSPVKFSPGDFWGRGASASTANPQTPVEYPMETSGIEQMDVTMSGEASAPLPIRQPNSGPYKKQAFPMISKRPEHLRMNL
Sequence of BTK(h) (Q06187 whole entry): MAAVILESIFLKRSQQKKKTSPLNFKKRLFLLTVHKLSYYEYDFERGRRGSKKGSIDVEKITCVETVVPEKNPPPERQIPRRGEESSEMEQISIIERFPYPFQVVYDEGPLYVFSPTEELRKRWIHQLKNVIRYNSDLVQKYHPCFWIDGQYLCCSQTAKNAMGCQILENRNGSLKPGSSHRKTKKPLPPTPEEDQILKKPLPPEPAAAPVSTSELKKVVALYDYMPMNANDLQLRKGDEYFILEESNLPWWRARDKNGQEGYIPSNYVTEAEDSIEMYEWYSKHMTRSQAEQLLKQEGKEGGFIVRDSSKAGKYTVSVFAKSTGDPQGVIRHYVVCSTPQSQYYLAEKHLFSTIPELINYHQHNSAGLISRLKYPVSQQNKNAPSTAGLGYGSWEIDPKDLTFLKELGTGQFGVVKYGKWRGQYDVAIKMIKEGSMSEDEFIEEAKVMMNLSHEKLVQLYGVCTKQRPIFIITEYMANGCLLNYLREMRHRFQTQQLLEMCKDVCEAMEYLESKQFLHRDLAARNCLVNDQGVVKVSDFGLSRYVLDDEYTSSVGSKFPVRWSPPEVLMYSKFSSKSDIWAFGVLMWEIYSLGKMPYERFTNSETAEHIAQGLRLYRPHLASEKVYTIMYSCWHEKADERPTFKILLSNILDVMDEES
Sequence of CHK2(I157T)(h) (O96017 whole entry I157T): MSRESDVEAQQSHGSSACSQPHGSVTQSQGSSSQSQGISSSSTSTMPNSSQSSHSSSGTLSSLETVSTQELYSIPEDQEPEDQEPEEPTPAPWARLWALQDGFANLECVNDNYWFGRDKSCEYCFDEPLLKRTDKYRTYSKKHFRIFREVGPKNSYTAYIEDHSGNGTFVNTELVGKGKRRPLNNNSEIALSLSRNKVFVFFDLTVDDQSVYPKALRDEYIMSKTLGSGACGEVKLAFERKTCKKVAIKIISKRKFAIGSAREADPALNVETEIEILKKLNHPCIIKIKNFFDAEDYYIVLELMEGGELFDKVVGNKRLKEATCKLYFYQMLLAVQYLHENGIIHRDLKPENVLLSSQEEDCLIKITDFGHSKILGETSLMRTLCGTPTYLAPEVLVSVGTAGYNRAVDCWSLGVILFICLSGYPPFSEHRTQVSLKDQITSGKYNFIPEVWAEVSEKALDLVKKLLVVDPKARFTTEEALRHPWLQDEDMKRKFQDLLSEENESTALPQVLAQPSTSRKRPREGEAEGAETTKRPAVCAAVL

| Sequence | TAK1(h) % activity (TAK1(h)) [%] | CHK2(I157T)(h) % activity (CHK2(I157T)(h)) [%] | PRAK(h) % activity (PRAK(h)) [%] | Rsk3(h) % activity (Rsk3(h)) [%] | p70S6K(h) % activity (p70S6K(h)) [%] | CDK9/cyclin T1(h) % activity (CDK9/cyclin T1(h)) [%] | IRAK4(h) % activity (IRAK4(h)) [%] | Bmx(h) % activity (Bmx(h)) [%] | Met(Y1248H)(h) % activity (Met(Y1248H)(h)) [%] | BTK(h) % activity (BTK(h)) [%] |
| --- | --- | --- | --- | --- | --- | --- | --- | --- | --- | --- |
| FAKLAARLYRKALARQLGVAA [MMI-0300] | 122 | 43 | 128 | 76 | 35 | 91 | 59 |  |  |  |
| KAFAKLAARLYRKALARQLGVAA [MMI-0400] | 177 | 41 | 118 | 71 | 33 | 235 | 59 | 26 | 63 | 94 |
| YARAAARQARAKALNRQLGVA (Mammalian) [MMI-0200] | 124 | 85 |  |  | 84 |  | 110 | 76 | 153 | 100 |
| HRRIKAWLKKIKALARQLGVAA (Mammalian) [MMI-0500] |  | 3 | 95 | 23 | 3 | 6 | 3 | 45 | 126 | 18 |
